Experimental data published in article PMC7187728 (Biochemistry, 2018).

Assays:
AaOSBS = biological target: T1, AaOSBS (Alicyclobacillus acidocaldarius, UniProt Z9M799VK71); assay: inhibition of OSBS activity, SHCHC loss at […] nm; type: biochemical
T1 sequence (Z9M799VK71 4-380): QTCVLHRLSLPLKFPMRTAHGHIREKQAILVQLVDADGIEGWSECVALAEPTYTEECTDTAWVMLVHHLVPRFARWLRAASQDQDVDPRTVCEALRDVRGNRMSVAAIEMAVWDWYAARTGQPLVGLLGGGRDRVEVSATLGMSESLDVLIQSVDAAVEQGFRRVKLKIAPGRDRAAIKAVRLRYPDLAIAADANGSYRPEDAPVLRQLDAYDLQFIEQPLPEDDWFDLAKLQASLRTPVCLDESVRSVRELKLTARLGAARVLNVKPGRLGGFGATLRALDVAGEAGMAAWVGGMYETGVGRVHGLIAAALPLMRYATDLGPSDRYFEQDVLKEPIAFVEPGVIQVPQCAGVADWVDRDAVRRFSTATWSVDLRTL

[1] = system: O=C(O)CCC(=O)C1=CC=C[C@@H](O)[C@@H]1C(=O)O; assay: purified protein; type: biochemical, Alicyclobacillus acidocaldarius; conditions: 50 mM Tris pH 8.0, 0.1 mM MnCl2, 25 °C
purified protein [2] = substrate: O=C(O)CCC(=O)C1=CC=C[C@@H](O)[C@@H]1C(=O)O; assay: purified protein; type: biochemical, Amycolatopsis mediterranei; conditions: 50 mM Tris pH 8.0, 0.1 mM MnCl2, 25 °C
purified protein [3] = substrate: O=C(O)CCC(=O)N[C@@H](C(=O)O)c1ccccc1; assay: purified protein; type: biochemical, Amycolatopsis mediterranei; conditions: 200 mM Tris pH 8.0, 0.1 mM MnCl2
purified protein [4] = substrate: O=C(O)CCC(=O)C1=CC=C[C@@H](O)[C@@H]1C(=O)O; assay: purified protein; type: biochemical, Roseiflexus castenholzii; conditions: 50 mM Tris pH 8.0, 0.1 mM MnCl2, 25 °C
purified protein [5] = substrate: O=C(O)CCC(=O)N[C@@H](C(=O)O)c1ccccc1; assay: purified protein; type: biochemical, Roseiflexus castenholzii; conditions: 200 mM Tris pH 8.0, 0.1 mM MnCl2

## O=C(O)CCC(=O)N[C@H](C(=O)O)c1ccccc1 [L-NSPG, N-succinyl-L-phenylglycine]
AaOSBS
  Ki: 2.6 ± 0.4 mM

## AaOSBS (Alicyclobacillus acidocaldarius)
[1]
  Km: 118 ± 18 µM
  kcat: 64 ± 3 s⁻¹
  kcat/Km: 540000 M⁻¹ s⁻¹

## O=C(O)CCC(=O)N[C@@H](C(=O)O)c1ccccc1 [D-NSPG, N-succinyl-D-phenylglycine]
AaOSBS
  Ki: 3.6 ± 0.4 mM

B1: AmedNSAR (Amycolatopsis mediterranei S699) (protein)
chain: MKLTGVELLRVRMPLVAPFRTSFGTQAERELLLLRAVTSEGEGWGECGAMAGPLYSAEYIDGVEHVLQAFLVPALLAAGDLTAHKVAPLLAKFKGHRMAKAALEMAVLDAELRAHGLSFGTALGSTSDSVPCGVSVGIMDSIPQLVDVVGGYLDAGYLRIKLKIEPGWDVEPVRAVRERFGDDILLQVDANTAYTLSDVPQLQRLDPFGLLLIEQPLEEEDVLGHAELARHLRTPICLDETVVSAASAAAAIRLGACRIVNIKPSRVGGYLEARRVHDVCAAHGIPVWCGGMLETGLGRAANVALASLPGFTLPGDTSASDRFYRTDITEPFVLEAGRLPVPSGPGLGVTPIPERLAEVTTAKSWLA
Purified protein [2]
  Km: 415 ± 39 µM
  kcat: 242 ± 11 s⁻¹
  kcat/Km: 580000 M⁻¹ s⁻¹
Purified protein [3]
  Km: 2800 ± 550 µM
  kcat: 74 ± 7 s⁻¹
  kcat/Km: 26000 M⁻¹ s⁻¹

B2: RcNSAR/OSBS (Roseiflexus castenholzii DSM 13941) (protein)
chain: MKIESITLHHIDMPLVAPFETSFGRETHRPCILIEMRADGLTGWGECVAGAGPWYAYETIGTAWHIISDFLAPMIVGQEITEPIGIVERFASVRGHPMARAAVEAAFWDLYAQARGVSLARLIGATRDRVTVGVSVGIELTLEAQLASIERFVAAGYARIKLKIKPGWDVAVVRAVRERWPDIALQVDANSAYTPDDAPIFRELDEMNLLLIEQPLHHDDIVDHARLQAQISTPICLDESIHSPEHARWALDIDACRVINIKIGRVGGLTAARQIHDLCAERGVPVWCGGMLETNVGRAVNLALAALPNFALPGDISASARYYHRDIAAPDFVLNDDSTITVPDTPGTGVAVLPERLRDVQVREVIIGKG
Purified protein [4]
  Km: 155 ± 22 µM
  kcat: 38 ± 3 s⁻¹
  kcat/Km: 250000 M⁻¹ s⁻¹
Purified protein [5]
  Km: 1800 ± 230 µM
  kcat: 15 ± 4 s⁻¹
  kcat/Km: 8300 M⁻¹ s⁻¹
